Test results published in article PMC4646009.
Where two headings read alike, the source gives them in different places.

Tests used:
[1] = target: Streptococcus thermophilus QueG (epoxyqueuosine reductase) (Streptococcus thermophilus); assay: native MS; nano-ESI, Waters Synapt G2, protein at 3-30 uM in anaerobic 100 mM ammonium acetate pH 6.8; monomer to dimer
[2] = target: Streptococcus thermophilus QueG (epoxyqueuosine reductase) (Streptococcus thermophilus); assay: as above; remark: listed apart in the source

proportion of dimer [1]: 5%
stoichiometry N [1]: 2
proportion of dimer [2]: < 5%
Substance: Streptococcus thermophilus QueG (epoxyqueuosine reductase) (enzyme)
